Among the data in article PMC9510068 are stoichiometry N values, retold here.

In this experiment the target is Bac S-2P (S-2P from the baculovirus-insect cell expression system, TN-5B1-4 cells) (SARS-CoV-2). The experiment can be described thus: negative-stain EM.

Usually stoichiometry N stands for the number of molecules, sites or subunits per partner or assembly. For “Bac S-2P (S-2P from the baculovirus-insect cell expression system, TN-5B1-4 cells) (domain or fragment)”, the stoichiometry N was found to be 3.
